# From the RNAGym collection of RNA variant scans (doi:10.7554/elife.80360)
# B1: CPEB3 Ribozyme (parent)
# chain: GGGGGCCACAGCAGAAGCGUUCACGUCGCGGCCCCUGUCAGAUUCUGGUGAAUCUGCGAAUUCUGCUGU
# Variants of: B1
# Experiment: self-cleavage, relative activity (ratio to wild type); higher = more cleavage; co-transcriptional
row,Variant,self-cleavage
1,GGGGGCCACAGCAGAAGCGUUCACGUCGCGGCCCCUGUGAGAUUCUGGUGAAUCUGCGACUUCUGCUGU [C39G A60C],0.265
2,GGGGGCCACAGCAGAAGCGUUCACGUCGCGGCCCCUGUGAGAUUCUGGUGAAUCUGCGAGUUCUGCUGU [C39G A60G],0.794
3,GGGGGCCACAGCAGAAGCGUUCACGUCGCGGCCCCUGUGAGAUUCUGGUGAAUCUGCGAUUUCUGCUGU [C39G A60U],0.354
4,GGGGGCCACAGCAGAAGCGUUCACGUCGCGGCCCCUGUGAGAUUAUGGUGAAUCUGCGAAUUCUGCUGU [C39G C45A],0.787
5,GGGGGCCACAGCAGAAGCGUUCACGUCGCGGCCCCUGUGAGAUUGUGGUGAAUCUGCGAAUUCUGCUGU [C39G C45G],0.828
6,GGGGGCCACAGCAGAAGCGUUCACGUCGCGGCCCCUGUGAGAUUUUGGUGAAUCUGCGAAUUCUGCUGU [C39G C45U],0.938
7,GGGGGCCACAGCAGAAGCGUUCACGUCGCGGCCCCUGUGAGAUUCUGGUGAAUAUGCGAAUUCUGCUGU [C39G C54A],0.561
8,GGGGGCCACAGCAGAAGCGUUCACGUCGCGGCCCCUGUGAGAUUCUGGUGAAUGUGCGAAUUCUGCUGU [C39G C54G],0.625
9,GGGGGCCACAGCAGAAGCGUUCACGUCGCGGCCCCUGUGAGAUUCUGGUGAAUUUGCGAAUUCUGCUGU [C39G C54U],0.888
10,GGGGGCCACAGCAGAAGCGUUCACGUCGCGGCCCCUGUGAGAUUCUGGUGAAUCUGCGAAUUAUGCUGU [C39G C63A],0.494
11,GGGGGCCACAGCAGAAGCGUUCACGUCGCGGCCCCUGUGAGAUUCUGGUGAAUCUGCGAAUUUUGCUGU [C39G C63U],0.934
12,GGGGGCCACAGCAGAAGCGUUCACGUCGCGGCCCCUGUGAGAUUCUGGUGAAUCUGCGAAUUCUGGUGU [C39G C66G],0.566
13,GGGGGCCACAGCAGAAGCGUUCACGUCGCGGCCCCUGUGAGAUUCUGGUGAAUCUGCGAAUUCUGUUGU [C39G C66U],0.961
14,GGGGGCCACAGCAGAAGCGUUCACGUCGCGGCCCCUGUGACAUUCUGGUGAAUCUGCGAAUUCUGCUGU [C39G G41C],0.351
15,GGGGGCCACAGCAGAAGCGUUCACGUCGCGGCCCCUGUGAUAUUCUGGUGAAUCUGCGAAUUCUGCUGU [C39G G41U],0.436
16,GGGGGCCACAGCAGAAGCGUUCACGUCGCGGCCCCUGUGAGAUUCUAGUGAAUCUGCGAAUUCUGCUGU [C39G G47A],0.996
17,GGGGGCCACAGCAGAAGCGUUCACGUCGCGGCCCCUGUGAGAUUCUCGUGAAUCUGCGAAUUCUGCUGU [C39G G47C],0.986
18,GGGGGCCACAGCAGAAGCGUUCACGUCGCGGCCCCUGUGAGAUUCUUGUGAAUCUGCGAAUUCUGCUGU [C39G G47U],0.989
19,GGGGGCCACAGCAGAAGCGUUCACGUCGCGGCCCCUGUGAGAUUCUGAUGAAUCUGCGAAUUCUGCUGU [C39G G48A],0.957
20,GGGGGCCACAGCAGAAGCGUUCACGUCGCGGCCCCUGUGAGAUUCUGUUGAAUCUGCGAAUUCUGCUGU [C39G G48U],0.966
21,GGGGGCCACAGCAGAAGCGUUCACGUCGCGGCCCCUGUGAGAUUCUGGUCAAUCUGCGAAUUCUGCUGU [C39G G50C],0.771
22,GGGGGCCACAGCAGAAGCGUUCACGUCGCGGCCCCUGUGAGAUUCUGGUGAAUCUACGAAUUCUGCUGU [C39G G56A],0.882
23,GGGGGCCACAGCAGAAGCGUUCACGUCGCGGCCCCUGUGAGAUUCUGGUGAAUCUCCGAAUUCUGCUGU [C39G G56C],0.938
24,GGGGGCCACAGCAGAAGCGUUCACGUCGCGGCCCCUGUGAGAUUCUGGUGAAUCUUCGAAUUCUGCUGU [C39G G56U],1
25,GGGGGCCACAGCAGAAGCGUUCACGUCGCGGCCCCUGUGAGAUUCUGGUGAAUCUGCAAAUUCUGCUGU [C39G G58A],0.864
26,GGGGGCCACAGCAGAAGCGUUCACGUCGCGGCCCCUGUGAGAUUCUGGUGAAUCUGCUAAUUCUGCUGU [C39G G58U],1.01

row,Variant,self-cleavage
1,GGGGGCCACAGCAGAAGCGUUCACGUCGCGGCCCCUGUGAGAUUCUGGUGAAUCUGCGAAUUCUACUGU [C39G G65A],0.599
2,GGGGGCCACAGCAGAAGCGUUCACGUCGCGGCCCCUGUGAGAUUCUGGUGAAUCUGCGAAUUCUGCUAU [C39G G68A],0.95
3,GGGGGCCACAGCAGAAGCGUUCACGUCGCGGCCCCUGUGAGAUUCUGGUGAAUCUGCGAAUUCUGCUCU [C39G G68C],0.955
4,GGGGGCCACAGCAGAAGCGUUCACGUCGCGGCCCCUGUGAGAAUCUGGUGAAUCUGCGAAUUCUGCUGU [C39G U43A],0.522
5,GGGGGCCACAGCAGAAGCGUUCACGUCGCGGCCCCUGUGAGAGUCUGGUGAAUCUGCGAAUUCUGCUGU [C39G U43G],0.448
6,GGGGGCCACAGCAGAAGCGUUCACGUCGCGGCCCCUGUGAGAUACUGGUGAAUCUGCGAAUUCUGCUGU [C39G U44A],0.772
7,GGGGGCCACAGCAGAAGCGUUCACGUCGCGGCCCCUGUGAGAUCCUGGUGAAUCUGCGAAUUCUGCUGU [C39G U44C],0.58
8,GGGGGCCACAGCAGAAGCGUUCACGUCGCGGCCCCUGUGAGAUGCUGGUGAAUCUGCGAAUUCUGCUGU [C39G U44G],0.709
9,GGGGGCCACAGCAGAAGCGUUCACGUCGCGGCCCCUGUGAGAUUCAGGUGAAUCUGCGAAUUCUGCUGU [C39G U46A],0.997
10,GGGGGCCACAGCAGAAGCGUUCACGUCGCGGCCCCUGUGAGAUUCGGGUGAAUCUGCGAAUUCUGCUGU [C39G U46G],0.907
11,GGGGGCCACAGCAGAAGCGUUCACGUCGCGGCCCCUGUGAGAUUCUGGAGAAUCUGCGAAUUCUGCUGU [C39G U49A],0.923
12,GGGGGCCACAGCAGAAGCGUUCACGUCGCGGCCCCUGUGAGAUUCUGGCGAAUCUGCGAAUUCUGCUGU [C39G U49C],0.875
13,GGGGGCCACAGCAGAAGCGUUCACGUCGCGGCCCCUGUGAGAUUCUGGUGAAACUGCGAAUUCUGCUGU [C39G U53A],0.538
14,GGGGGCCACAGCAGAAGCGUUCACGUCGCGGCCCCUGUGAGAUUCUGGUGAACCUGCGAAUUCUGCUGU [C39G U53C],0.516
15,GGGGGCCACAGCAGAAGCGUUCACGUCGCGGCCCCUGUGAGAUUCUGGUGAAGCUGCGAAUUCUGCUGU [C39G U53G],0.533
16,GGGGGCCACAGCAGAAGCGUUCACGUCGCGGCCCCUGUGAGAUUCUGGUGAAUCAGCGAAUUCUGCUGU [C39G U55A],0.866
17,GGGGGCCACAGCAGAAGCGUUCACGUCGCGGCCCCUGUGAGAUUCUGGUGAAUCUGCGAAAUCUGCUGU [C39G U61A],0.703
18,GGGGGCCACAGCAGAAGCGUUCACGUCGCGGCCCCUGUGAGAUUCUGGUGAAUCUGCGAAGUCUGCUGU [C39G U61G],0.597
19,GGGGGCCACAGCAGAAGCGUUCACGUCGCGGCCCCUGUGAGAUUCUGGUGAAUCUGCGAAUACUGCUGU [C39G U62A],0.788
20,GGGGGCCACAGCAGAAGCGUUCACGUCGCGGCCCCUGUGAGAUUCUGGUGAAUCUGCGAAUCCUGCUGU [C39G U62C],0.658
21,GGGGGCCACAGCAGAAGCGUUCACGUCGCGGCCCCUGUGAGAUUCUGGUGAAUCUGCGAAUGCUGCUGU [C39G U62G],0.592
22,GGGGGCCACAGCAGAAGCGUUCACGUCGCGGCCCCUGUGAGAUUCUGGUGAAUCUGCGAAUUCCGCUGU [C39G U64C],0.736
23,GGGGGCCACAGCAGAAGCGUUCACGUCGCGGCCCCUGUGAGAUUCUGGUGAAUCUGCGAAUUCGGCUGU [C39G U64G],0.642
24,GGGGGCCACAGCAGAAGCGUUCACGUCGCGGCCCCUGUGAGAUUCUGGUGAAUCUGCGAAUUCUGCCGU [C39G U67C],0.93
25,GGGGGCCACAGCAGAAGCGUUCACGUCGCGGCCCCUGUGAGAUUCUGGUGAAUCUGCGAAUUCUGCUGC [C39G U69C],1.05
26,GGGGGCCACAGCAGAAGCGUUCACGUCGCGGCCCCUGUUAGAUUCUGGUGAAUCUGCGAAUUCUGCUGU [C39U],0.954

row,Variant,self-cleavage
1,GGGGGCCACAGCAGAAGCGUUCACGUCGCGGCCCCUGUUCGAUUCUGGUGAAUCUGCGAAUUCUGCUGU [C39U A40C],0.756
2,GGGGGCCACAGCAGAAGCGUUCACGUCGCGGCCCCUGUUGGAUUCUGGUGAAUCUGCGAAUUCUGCUGU [C39U A40G],0.813
3,GGGGGCCACAGCAGAAGCGUUCACGUCGCGGCCCCUGUUAGCUUCUGGUGAAUCUGCGAAUUCUGCUGU [C39U A42C],0.542
4,GGGGGCCACAGCAGAAGCGUUCACGUCGCGGCCCCUGUUAGGUUCUGGUGAAUCUGCGAAUUCUGCUGU [C39U A42G],0.514
5,GGGGGCCACAGCAGAAGCGUUCACGUCGCGGCCCCUGUUAGAUUCUGGUGUAUCUGCGAAUUCUGCUGU [C39U A51U],0.836
6,GGGGGCCACAGCAGAAGCGUUCACGUCGCGGCCCCUGUUAGAUUCUGGUGACUCUGCGAAUUCUGCUGU [C39U A52C],0.776
7,GGGGGCCACAGCAGAAGCGUUCACGUCGCGGCCCCUGUUAGAUUCUGGUGAGUCUGCGAAUUCUGCUGU [C39U A52G],0.948
8,GGGGGCCACAGCAGAAGCGUUCACGUCGCGGCCCCUGUUAGAUUCUGGUGAUUCUGCGAAUUCUGCUGU [C39U A52U],0.78
9,GGGGGCCACAGCAGAAGCGUUCACGUCGCGGCCCCUGUUAGAUUCUGGUGAAUCUGCGGAUUCUGCUGU [C39U A59G],0.987
10,GGGGGCCACAGCAGAAGCGUUCACGUCGCGGCCCCUGUUAGAUUCUGGUGAAUCUGCGACUUCUGCUGU [C39U A60C],0.341
11,GGGGGCCACAGCAGAAGCGUUCACGUCGCGGCCCCUGUUAGAUUCUGGUGAAUCUGCGAGUUCUGCUGU [C39U A60G],0.667
12,GGGGGCCACAGCAGAAGCGUUCACGUCGCGGCCCCUGUUAGAUUCUGGUGAAUCUGCGAUUUCUGCUGU [C39U A60U],0.266
13,GGGGGCCACAGCAGAAGCGUUCACGUCGCGGCCCCUGUUAGAUUUUGGUGAAUCUGCGAAUUCUGCUGU [C39U C45U],0.862
14,GGGGGCCACAGCAGAAGCGUUCACGUCGCGGCCCCUGUUAGAUUCUGGUGAAUAUGCGAAUUCUGCUGU [C39U C54A],0.526
15,GGGGGCCACAGCAGAAGCGUUCACGUCGCGGCCCCUGUUAGAUUCUGGUGAAUGUGCGAAUUCUGCUGU [C39U C54G],0.546
16,GGGGGCCACAGCAGAAGCGUUCACGUCGCGGCCCCUGUUAGAUUCUGGUGAAUUUGCGAAUUCUGCUGU [C39U C54U],0.853
17,GGGGGCCACAGCAGAAGCGUUCACGUCGCGGCCCCUGUUAGAUUCUGGUGAAUCUGUGAAUUCUGCUGU [C39U C57U],0.37
18,GGGGGCCACAGCAGAAGCGUUCACGUCGCGGCCCCUGUUAGAUUCUGGUGAAUCUGCGAAUUAUGCUGU [C39U C63A],0.54
19,GGGGGCCACAGCAGAAGCGUUCACGUCGCGGCCCCUGUUAGAUUCUGGUGAAUCUGCGAAUUGUGCUGU [C39U C63G],0.451
20,GGGGGCCACAGCAGAAGCGUUCACGUCGCGGCCCCUGUUAGAUUCUGGUGAAUCUGCGAAUUUUGCUGU [C39U C63U],0.84
21,GGGGGCCACAGCAGAAGCGUUCACGUCGCGGCCCCUGUUAGAUUCUGGUGAAUCUGCGAAUUCUGAUGU [C39U C66A],0.541
22,GGGGGCCACAGCAGAAGCGUUCACGUCGCGGCCCCUGUUAGAUUCUGGUGAAUCUGCGAAUUCUGUUGU [C39U C66U],0.885
23,GGGGGCCACAGCAGAAGCGUUCACGUCGCGGCCCCUGUUAAAUUCUGGUGAAUCUGCGAAUUCUGCUGU [C39U G41A],0.475
24,GGGGGCCACAGCAGAAGCGUUCACGUCGCGGCCCCUGUUAUAUUCUGGUGAAUCUGCGAAUUCUGCUGU [C39U G41U],0.337
25,GGGGGCCACAGCAGAAGCGUUCACGUCGCGGCCCCUGUUAGAUUCUCGUGAAUCUGCGAAUUCUGCUGU [C39U G47C],0.957
26,GGGGGCCACAGCAGAAGCGUUCACGUCGCGGCCCCUGUUAGAUUCUGAUGAAUCUGCGAAUUCUGCUGU [C39U G48A],0.998
